In test [1] the target is recombinant IL-17E (baculovirus, Examples 33/34) (human) (UniProt Q9H293). In words: SPR (BIAcore 1000), IL-17E immobilized on CM5 chip, IL-17RH1 ECD in solution, 1:1 model. For orientation: Surface plasmon resonance follows binding to a sensor surface in real time, without labels.
The target in test [2] is T1, IL-17R extracellular domain (residues 1-288), baculovirus, Examples 33/34 (human, UniProt Q96F46 33-320).
T1 construct: range 1-288; also called IL-17R ECD
The experiment in a line: SPR (BIAcore).

For test [3], the target named is T2, IL-17RH1 (PRO5801) extracellular domain (residues 1-275), baculovirus, Examples 33/34 (human) (UniProt Q9NRM6).
T2 sequence: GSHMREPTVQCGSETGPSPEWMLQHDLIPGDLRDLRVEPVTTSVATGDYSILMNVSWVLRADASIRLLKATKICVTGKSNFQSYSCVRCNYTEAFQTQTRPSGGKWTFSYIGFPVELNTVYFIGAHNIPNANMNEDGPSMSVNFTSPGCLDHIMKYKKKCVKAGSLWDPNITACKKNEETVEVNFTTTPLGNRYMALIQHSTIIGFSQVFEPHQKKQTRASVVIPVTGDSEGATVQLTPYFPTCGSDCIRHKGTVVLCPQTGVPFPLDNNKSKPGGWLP
The experiment in a line: SPR (BIAcore 1000), IL-17RH1 ECD immobilized on CM5 chip, IL-17E in solution, 1:1 model.

The target of test [4] is T3, IL-17RH1 (PRO5801) expressed on transfected 293 cells (human, UniProt Q9NRM6 18-502).
T3 construct: also called IL-17RH1 expressing cells
T3 sequence: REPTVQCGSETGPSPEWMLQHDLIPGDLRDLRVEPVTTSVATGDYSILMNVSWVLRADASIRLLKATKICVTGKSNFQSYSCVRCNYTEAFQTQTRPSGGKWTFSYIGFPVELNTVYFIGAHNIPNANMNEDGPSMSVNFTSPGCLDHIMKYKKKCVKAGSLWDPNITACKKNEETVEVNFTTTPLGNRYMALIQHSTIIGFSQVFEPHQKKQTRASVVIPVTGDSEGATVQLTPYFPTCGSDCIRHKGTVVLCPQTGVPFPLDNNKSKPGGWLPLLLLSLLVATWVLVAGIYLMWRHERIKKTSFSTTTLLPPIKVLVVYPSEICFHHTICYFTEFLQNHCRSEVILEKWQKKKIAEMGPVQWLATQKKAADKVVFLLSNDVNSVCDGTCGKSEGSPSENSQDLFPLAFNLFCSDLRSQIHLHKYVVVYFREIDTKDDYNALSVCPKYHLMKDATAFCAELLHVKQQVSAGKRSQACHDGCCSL
In words: FACS on 293 cells co-transfected with GFP and IL-17RH1, ligand-Fc detected with PE anti-human Fc antibody, GFP-positive cells.

The target of test [5] is T3, IL-17RH1 (PRO5801) expressed on …. In words: flow cytometry competition against IL-17E immunoadhesin on IL-17RH1-transfected 293 cells.
Test [6] concerns the target T1, IL-17R extracellular domain (residues …). In words: SPR (BIAcore), IL-17F immobilized, receptor ECD in solution.

Here are results for five molecules from patent US20030203451A1 (Genentech, published 2003).

By Kd is commonly meant the constant that tells how readily two partners part at equilibrium. What is called koff is the first-order rate constant of dissociation. By kon is commonly meant the rate constant with which the complex forms.

Take “IL-17RH1 (PRO5801) extracellular domain (residues 1-275), baculovirus, Examples 33/34 (from UniProt Q9NRM6 18-292) (receptor)”: in test [1], the Kd turned out to be 1.1 nM, the koff was 0.0007 s⁻¹ and the kon was determined as 670000 M⁻¹ s⁻¹.

B1: recombinant IL-17E (baculovirus, Examples 33/34) (ligand)
chain: GSHMYSHWPSCCPSKGQDTSEELLRWSTVPVPPLEPARPNRHPESCRASEDGPLNSRAISPWRYELDRDLNRLPQDLYHARCLCPHCVSLQTGSHMDPRGNSELLYHNQTVFYRRPCHGEKGTHKGYCLERRLYRVSLACVCVRPRVMG
notes: also called IL-17E (PRO10272); soluble IL-17E
For B1, the binding result in test [2] was “no binding”. For the same molecule, in test [3], the Kd is 1.4 nM, the koff worked out at 0.00062 s⁻¹ and the association rate constant (kon) amounted to 430000 M⁻¹ s⁻¹.

B2: IL-17E-Fc fusion protein (IL-17E immunoadhesin) (Fc fusion)
chain: YSHWPSCCPSKGQDTSEELLRWSTVPVPPLEPARPNRHPESCRASEDGPLNSRAISPWRYELDRDLNRLPQDLYHARCLCPHCVSLQTGSHMDPRGNSELLYHNQTVFYRRPCHGEKGTHKGYCLERRLYRVSLACVCVRPRVMG
notes: not shown: Fc region of human IgG1, fused in frame at the C-terminus
For B2, the binding result in test [4] was “binds”.

B3: His epitope tagged IL-17E (E. coli, refolded) (ligand)
chain: B2 chain
notes: also called IL-17E 8xHis-tag fusion; not shown: 8xHis-tag fusion
For B3, in test [5], the binding result is listed as “binds”.

B4: recombinant IL-17F (baculovirus, Examples 33/34) (ligand)
chain: GSHMRKIPKVGHTFFQKPESCPPVPGGSMKLDIGIINENQRVSMSRNIESRSTSPWNYTVTWDPNRYPSEVVQAQCRNLGCINAQGKEDISMNSVPIQQETLVVRRKHQGCSVSFQLEKVLVTVGCTCVTPVIHHVQ
modifications: N-glycosylation at Asn 53 (mature numbering); about 3 kDa carbohydrate per dimer
notes: The same protein was crystallized; also called IL-17F (PRO20110); immobilized IL-17F
With B4, the binding result in test [6] is “no binding (tested: up to 1 µM)”.
